{
  "source": "patent US20180244779A1",
  "about": "(KADMON, published 2018)",
  "key": {"hPD-1-Fc": {"molecular_target": "T1, hPD-1-Fc (human, UniProt Q15116 25-167, limits assumed)", "T1 construct": "It was immobilized on the ELISA plate; also called soluble human PD-1-Fc; not shown: Fc part", "T1 sequence (Q15116 25-167 limits assumed)": "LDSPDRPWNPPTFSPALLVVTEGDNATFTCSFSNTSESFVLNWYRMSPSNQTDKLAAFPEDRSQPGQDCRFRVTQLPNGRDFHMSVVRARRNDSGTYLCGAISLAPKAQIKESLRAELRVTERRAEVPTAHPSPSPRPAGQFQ", "assay": "dose-response ELISA, immobilized hPD-1-Fc", "method": "(§1) The binding activity of the five antibodies was examined using dose-response ELISA. The serially diluted antibodies were added to immobilized hPD-1-Fc and detected by HRP conjugated anti-hIgG Fab specific antibody. The OD450 reading was plotted vs. log antibody concentration using GraphPad Prism6. EC50 was calculated by using “dose-response” (stimulation) variable slope (four parameters)” program. The antibodies were also added to immobilized mPD-1-Fc and other Fc-fusions to determine specificity for hPD-1-Fc and to immobilized anti-human IgG fc specific antibody (anti-hFc Ab) to check the accuracy of the concentration measurement."}, "mPD-1-Fc": {"molecular_target": "T2, mPD-1-Fc (murine, UniProt Q02242 25-167, limits assumed)", "T2 construct": "also called murine PD-1; not shown: Fc part", "T2 sequence (looked up)": "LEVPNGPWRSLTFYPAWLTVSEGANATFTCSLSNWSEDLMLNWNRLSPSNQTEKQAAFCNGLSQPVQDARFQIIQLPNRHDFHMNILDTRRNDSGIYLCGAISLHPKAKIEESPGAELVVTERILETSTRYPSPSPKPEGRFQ", "assay": "dose-response ELISA, immobilized mPD-1-Fc", "method": "as §1"}},
  "data": [
    {"binder": "R4B3 (antibody, V domains shown) VH: EVQLLESGGGLVQPGGSLRLSCAASGFTFSYYWMSWVRQAPGKGLEWVSYISPSGGMTKYADSVKGRFTISRDNSKNTLYLQMNSLRAEDTAVYYCASASYDYVWGIYHYDVFDIWGQGTMVTVSS VL: DIQMTQSPSSVSASVGDRVTITCRASQGISSWLAWYQQKPGKAPKLLIYAASSLQSGVPSRFSGSGSGTDFTLTISSLQPEDFATYYCQQANSFPLTFGGGTKVEIKR", "values": [
      {"measurement": "binding result", "setting": "hPD-1-Fc", "value": "binds"},
      {"measurement": "binding result", "setting": "mPD-1-Fc", "value": "binds"}
    ]},
    {"binder": "R3A2 (antibody, V domains shown) VH: EVQLLESGGGLVQPGGSLRLSCAASGFTFSWYSMLWVRQAPGKGLEWVSRIYPSGGFTYYADSVKGRFTISRDNSKNTLYLQMNSLRAEDTAVYYCARVIDIVGATGRLQHGMDVWGQGTTVTVSS VL: QYELTQPPSVSVAPGQTAKITCGGNNIGSKSVNWYQQKTGQAPVLVVHDDSDRPSGIPERLSGSNSGNTATLTISRAEAGDEADYYCQVWDSVSDHYVFGTGTKVTVLG", "values": [
      {"measurement": "binding result", "setting": "hPD-1-Fc", "value": "binds"}
    ]},
    {"binder": "R3D6 (antibody, V domains shown) VH: EVQLLESGGGLVQPGGSLRLSCAASGFTFSDYNMAWVRQAPGKGLEWVSSIGPSGGNTHYADSVKGRFTISRDNSKNTLYLQMNSLRAEDMAVYYCARERVEYYYYGMDVWGKGTTVTVSS VL: QSALTQAPSVSVAPGQTARITCGGDNIESLSVHWYQQKPGQAPVLVVYDDADRPSGTPERFSGSNSGNTATLTINRAEAGDEADYYCQVWDYSSDVVVFGGGTTLTVLG", "values": [
      {"measurement": "binding result", "setting": "hPD-1-Fc", "value": "binds"}
    ]},
    {"binder": "R3A1 (antibody, V domains shown) VH: EVQLLESGGGLVQPGGSLRLSCAASGFTFSRYHMMWVRQAPGKGLEWVSSIYPSGGYTYYADSVKGRFTISRDNSKNTLYLQMNSLRAEDTAVYYCAREYFSGPDYWGQGTLVTVSS VL: DIQMTQSPSTLSASVGDRVTITCRASQKISRWLAWYQQTPGKAPKLLIYRASDLESGVPSRFSGSGSGTEFTLTISSLQPDDFATYYCQQYNTYPYTFGQGTKLEIKR", "values": [
      {"measurement": "binding result", "setting": "hPD-1-Fc", "value": "binds"}
    ]}
  ]
}
